Test: label from the status in PepcDB records

Sequence | protein production
MGLKPSEVIELWPVKIFFIILSVTLFYNFALANGALEKLASHLLYKCRKFPQFLPLAIFFAATIIAGLGAGFYTVLAFMAPITLLLCKKTNMNMIIGGMAANYGALAGANFMTSQSGIIFRSLMENTGISSQTAFSYSSGIFVLTLIIPIAVLGIYTLWNRKSNSIVIEDQKPEPFDKKQKQSIFLIILMMSIVLVFPILHLVFPDVKTISFLNSKIDIAFLAITFSLISLLMKLADEKKVIALVPWRTLIMICGVGMLIALGVKLGIITTLSEWLANNVPVWVIPVLLCLISAIMSVFSSTLGVVAPTLFPIVPALALTSGLNPLVLFICIVVGAQSTAISPFSSGGSLIMASAPADIDKTKFFNQLLFKAIPVGVIAALIAIFALKFVI | failed
MGLKQTLKEIYYIVADKRLLYFSLSLGISTFAYSLLTYYFPIIMTNLDITTFTIGIIYSIISFLYVVFNIPLGAIVDKIGSKNAVTLSALMAVPLFLLMGTLNPLLFIISLVIFESVIRIVNSLGAHRFMLNYTNAGKAFGVFSLITSILAAIGIMLGGYLLQHSVSTLLFTIIAVLFGISGIIRFLELPKDENKVEVKRSLRLGFKYLKEDKKLLLYLLVSILSSGLSLETYYVTIYFVKDLLLPLTFVGVLYSSYALIMAFLPLLFSVILSKRSNFKNLSILIFSNSVIFFLVPLFTNVYILFLLFYAWTVIVAMESIVDYNVAQSVTKPEIRGTQVALISTFVRIFSVFYNAIVGLLFQITPLYSFYFTGFLGILAIFTIKFAEFIGVLK | failed
MGLLVILNIVMRIPSIPHEKGYDSFFIHSLANSVANFGVAQWWINWMSVFGLYPYSYASAVPFTLSGMSQLTGIRMEIVILLFCVLLGLFSIFASYSLATVLYDNFLHRFLFAVIFSSSAGTLNLTTWEITTRAQILVFFPFLLYLLFQIIKFKTKFVMLFIVTALLLLATHHFVYMGLFYSGLIFIVALIYKLNRNQPFQIQKTQLRNINLNYMYISSVFFLIILIFLYGSKWGLITSGSRYAWIIDILMITGRNVGLTLLLSIGALIYYIFKKDKLLDEWAILICLIPTLIFSFNQTYGYLTTYLFVTLLGSAGLFNVIKNQKQNRKVVAATVVILIILNITFSTFFVHYRLGIGGGNSEWYMSEETYNTGEWIKENISWDKKAVSNSMQGNRLFASYGGQPVLYRDDISNYMNGFVTLNESKIEKKSPFSKSFYLDNPYVLKSGTTTSGLYSWISQYPITSENSQNFINGNNISYFYDDSLNYNRLFGSLPQSKNSIYNSGRMRIWEN | failed
MGLNKEAVKIGFAYVGIVVGAGFSTGQEVMQFFSPYGLWSYIGVILSGLILGFIGRQVAKIGTAFDAQNHESTLDYLFGNKFSKIVDYLLIFFLFGISVTMLAGAGSTFEESFGVPTWLGALIMVIVIYITLLMDFNKIVRALGVVTPFLIILVVIIAAYYLFNGSISFGEVNDAVPDASLVKGILYGINYGGLAFAVGFSTIVAIGGDASRRRVSGAGALFGGIVYTILLALINFALQSEFTKIEDASIPMLTLANDIHPWIGLVLSIIMLAVMYNTILGLMYSFAARFTEPYSKKYHIFIVVMVIVAFALSFVGFAGLINFLYPIMGVVGLVVVIGVLVKYYSRKRQNKKFIA | failed
MGLNNARGLSFGLDGALYVTEAGTGGNGACIPSVTGQGGSLCYGTSSTVLKIENGVTSPVLTGLPSIALADGTGAGGARDIQFDTTGKPYILMGYGANPTFRNNLGNIDLGKIIAPDFQTNSWTSIADLANYELVNNPDGGDINSNPLGFFIDGNNLIAVDAGANNLLSVQTNGTNLQTLSVFPQEILTNPVFPPSGTPSTEPGQVPTPTAPPPPQLPIQVVPSSVVRGPDGAYYVSQFTGFPFPEGGAKIYRVGTDGETTIYADGFTQLTDLEFDSAGNLYALQYANQSAWKGNFDGSLIKIAADGTRTTILSGNGLESPNALAIAPNGEIYITNRSDRPGLGQIIRVENSQAVPLEHHHHHH | failed
MGLPAHHIDAFLDRLRTAHYSEVSLRKKRRVLCAFSGWMKHRNIDLIDLDESVTARFMKRMIDASRDRVQRARPTLRQFLAYLRAEAIVCSPTLGSQSAIAHTYRRYLDYLRQDRGLAKNSLLVYGPFIRDFLDSHSAGDGSLLPDAFDAVTIRNHLLARSKGRSAEYTRLMAVALRSFCHFLFLRGDTARDLAGSVPSVRKWRQSTVPTFLTPEQQEALIASADRSTPTGLRDYAILLLLARLGLRAGEIIEIELDDIHWRSGELVVHGKGQMVEHVPLSSEVGAAIATYLRDGRGASASRRVFLRRLAPRVGLAGPAAIGKIVCQAFARVGFRPACRGAAHLFRHGLATTMIRHGASMAEIAEVLRHRSPDSTAIYAKVAFEDLRGVARSWPTAGGAILEHHHHHH | not failed
MGLPNLSRFREKCCYCYRSIGDGISVCDCGFSFCEKHRGIHLGKSGCRIVFDIKEVGSDLGIEIKNAMLGEEEVEELRRRMEILIKPGDEDERVLSRDEEVRCVHGCPEGPSSIEMGNIGGLKCNLCDVKTRLWVCFSCGYVGCGRMQYGAEGNGHAKSHYEETQHNVFVLVPSLLKEDCEIFCYLCDSNIRSRYNSAENSVTIDFGGADGKTEERSVRKVMSCRGIAEPEFLEKKRAPESKGESVPSPYVGIINSGNTCYISSVIHMVGYAVSKEEFDLEQHFEICYMKNPLECFFCQLMRVLSKMKETKDNEGVNRISILDLIMLIWRDMPMFGKFAQQDAHEFLLFLLEKIREGERSYLIPPITSLFEFEVGRRVSCSGCMDDSTSYESMLMICTFLKGNIRKSVEMFFLPDEWSCECGGKKKVSRFITTLPKYLIIQVGRYSYNNYKVEKIKDKIEMRSIKLGSFMSKDEADRSLVRKLVDSGYPEEDAAKALGIFWNDESKARSLLENHAMMDMRTDSKYRVVGCINHSGDNIKAGHYTWWVYDNGKCFKIDDTTVLNSNVEVLEDGYIFLFK | failed
MGLRALSASVNAFECEKQHGDPKSMRINSVPGGRPPRDGRPSRAGALFGCSSAEALYFGSECRPGPSARRFGDNRAHSSLTYWCGMNTFDFGFDDSEDSPHEDPLEDLVAAYENDPSAYFDSGDLEEIASFYFEEGEMETALEVIDRLIELHPYTSDAWMRRGILLNNLGRPEEALEAYEQALDVNPTDTETLINLGITLDSLGRVDEALEAYDEALSINPLHGEALFNLGVTLERDEQLEAAVEAFQRCADVYPEHPEVWYELGYCYDRLGEDEKSVEAYDNHLDIDPYSKDAWYNRGIVLNRLGRFGEAVESYDMALAIHDEFASAYYNRGNAEANQGDLEAAVESYERVLELEGPDAATYYNLALAYEEQGDLRAARTYYEKTLDLKSNYPEAWYGLGCCFDTDERPEEALECFRYAVNLDANVPKFWTARADCAYKVGKLDEALESYQHAVRLDESNEHAWTGYAETLLEKEQPEEALEAYRQALELDPKSANTYFRQAKALLALGRADESIRALKTAFRLDPAKKEEFQKAYPTLYDNDRVRRLLDLDS | failed
MGLRMSESAKPYFAMVCLQFGYAGMNLVTKTVLDRGMSHYVLVAYRNAFATAAIAPFALLSERKVRSKMTFPIFMRIFLLALLGPVIDQNLYYIGLKLTSPTFSSAVSNIVPAITIILATLFRMEKVEMRKVRCLVKVMGTLVTVVGSILMIFYKGPFINFFRSHLTAASSPPTADYLKAAVFLLLASLSWASFFVLQAATLKKYSAHLSMSTMVCFMGTLQSLALAFVMEHNPSALNIGFDMNLLASAYAGIMSSSIAYYVQGLMMQRKGPVFVTAFNPLIVVIVSIMSFFVLGQGIYLGGYVNNNRVIGVVVLMVGVYAVLWGKHVDDDGEETRHEDNVVAVKCCSGNNGLTIMPKIDEADEEDVETGKATSEKESSVPEVVVVVFCSENVHSVSRPN | failed
MGLSAVAVFAISGALDAARQKMDILGFMLIGTATGLGGGTLRDLLLGNVPVFWIREPIWIIVCLVSTAITYFIAPKLASITRALIWMDAVGIALFAVVGTEIALEFGTSPLIAICMGVMTASFGGIARDVLSGSNLTLMNEELYITTTVAGSVMYLWLNTLSLPANYDLIGGFFIAFILRALAIRFHIKLPNHYRKD | failed
MGLTDIFLNLLLFVYPAVFIIYQIILYEISARKQINQEALKYSNLPVLSIIVPIKNEEISVIQGLLDNLSNLIWDKKKLEIIIVSDDNEDYFTKIINTVKVPKDLTVYFYRREKKLGYKSGALQYGFEKATGDLILTIDVDSRLPPNALINAYEKMQSNTCDAIVFQWNGYSSNQYSTLAKGMVVSTLFASKALFEGKEKLKLKIYPVGSGTMFSREALRVVNGWDYRLVQDDLEIGTRLIYNGKNVCASGIPIYVEVPDNFYSFYVQQTRWAMGSAEVLRNRLKYIIKSKISFTQRMDLIIYLLQYTPVIVTFFISTLLSLMLPFRIGHDPLNSPALLFWLVSLGLYASLLLSLALKLGLNLKDSLMGIGRLTAFTVSISPFIVFNFFKGLLKSGNTYVITPKGTVKKTNKLLRIIAIIGVFGLLYLLSSILYIYEGYYVTGIWLLYYSSAYLYTMLLYYKEL | failed
MGLTSHKYKYVSIYFLALLFLGIAVIESLHISHTRDLQEGLRQQAKEDLSIVRFQLEAEILGDIYTVKGLTTLLTLDPDLNIYQWEPLSAAVIRNSDHLRSLGIAPNDVVAFSYPLPQTNALLGLDYRTVPQQWQSIKKAREIKQTFVSGPVDLVQGGRALVIREPIFYDPPKDTRYWGVLSVVMDWDSLLSATSIYSFGEHFQVAIRGLDSRGSEGDVFFGEPRVFEHAFAQENVYFPYGSWRIAVAEKQDLLQQLSWYTRNAVRLLGYSVLLVLMAGFGVIMRLYQVAEERALHDPLTHLPNRRYFIYTIEHYFENAKRSHSEGNFALLNIDIDRFKSINDSHGHSAGDKVLVACAERIKSSLRVSDLVARIGGDEFLVLIPRIHREQDVLKVSDNILKRISETPIVYDDKLIHVRVSIGYALYDQSFATPDEMFKLADERMYTAKRRQNPLYRF | failed
MGMASMSSGTESLRLCVFDLRRGQHEGQELDKILFFYPPDLTFSTQLSVIGLSEGLITFTRLFSPEAACEVIEAERHSHVFYEAEPDIWMVMIVEKNKEIEAVWRIDALRRVLKEVHSLFVMFQGSIRALLEKEPTGGLVRSHLYPFITDYLNDLFVGKKQQLPSFRDTLKERGTVQMLTLARDAALEVQSLVGVLDSCAGTVRCHSVILFHDLLVSTTLSPDDTVDLFAFSVMRLTTNALSSGTSSWSYLRKGSGSPQISSRSTTVPPLGSGGTLPSGNGSSTGRVIRPLQHDKWSKGKDGFLVTDIWGLDATPTILIQKTQESFYLLTYQYKSLTLVLLVPIAAIVNGELDISFVKQQVIENASTKILKVEEKLSKGWGGENAYHVSGYRYLLVDNDMEVSRASPPGKVATLAKESLLALNKLREEVDTEKNRSKQEKDMEICIRAKNNTWVIARLNRGKELYMALEKASETLLDATDSVQRFSNRYCSGAFPMD | failed
MGMEHKTYEADLFVWCQQQADGLRALSRSRRDLPDDLDLEHIAEEIEDMGRSELREATSLVRQICVRVIMAMSAPEAPDRARWRSEVVSWHNLLLDTITPGMIDRIDIGVIWRRAVSEAKAALIEINVAPQAGLSFQAPLPADHFLDEDFDYDATVARLGPTA | not failed
MGMPAGPYLLTPPGVYAPQHDTDLLARALRREDIDTSTEVLDLGTGSGALAVHAARLGARVTAVDISRRAVLTARLNALLAGRRVTVRRGDLTAAVPGRSYDLVVSNPPYVPSPSARLPSRGAARAWDAGHDGRAFVDRICDTAPAALRAGGALLIVHSALCGTRPTLDRLAAAGLDASVTDRAFVPFGPVLRARRAWLRRQGLLTDENLEELVVIRAEHS | failed

Reference: a protein production outcome set (Wang et al. 2014)
